# Data from PMC11077774.
# B1: full-length GTP-bound Rab6a/Q72L with N-terminal GST tag [human] / BicD2-CTD (C-terminal cargo-binding domain of human Bicaudal D2, residues 715-804) [human] (parent)
# chain 1: YENEKAMVTETMMKLRNELKALKEDAATFSSLRAMFATRCDEYITQLDEMQRQLAAAEDEKKTLNSLLRMAIQQKLALTQRLELLELDHE
# chain 2: MSTGGDFGNPLRKFKLVFLGEQSVGKTSLITRFMYDSFDNTYQATIGIDFLSKTMYLEDRTVRLQLWDTAGLERFRSLIPSYIRDSTVAVVVYDITNVNSFQQTTKWIDDVRTERGSDVIIMLVGNKTDLADKRQVSIEEGERKAKELNVMFIETSAKAGYNVKQLFRRVAAALPGMESTQDRSREDMIDIKLEKPQEQPVSEGGCSC
# Variants of: B1
# Test: GST pull-down, SDS-PAGE band quantification
# Settings: with BicD2-CTD (C-terminal cargo-binding domain of human Bicaudal D2, residues 715-804) [human]; parent: 1; read off a plot
row,Variant,ratio to parent
1,chain 2 W67A,0.09
2,chain 2 S23A,0.96
3,chain 2 T45A,0.01
4,chain 2 F38A,0.01
5,chain 2 T69A,0.07
6,chain 2 Q22A,0.97
